This is an account of results in US20250304690A1 (HANGZHOU VIROMAB BIOTECH, published 2025).

B1: BK-B-110 (bispecific antibody)
chain: ELVMTQSPASLAVSLGQRATISCRASESVDSYGKSFMHWYQLKPGQPPKLLIYRASNLESGVPARFSGSGSRTDFTLTIDPVEADDAATYYCQQNNEDPWTFGGGTKLEIKGSTSGSGKPGSGEGSTKGEVQLEQSGPELVKPGASVKMSCKASGYTFTNYYMKWVKQSHGKSLEWIGDLNPNNGDTFYNQKFKGKATLTVDKSSNTAYMQLNSLTSEDSAVYYCARTGRYEENAMDYWGQGTSVTVSSPCPAPEFEGGPSVFLFPPKPKDTLMISRTPEVTCVVVDVSHEDPEVKFNWYVDGVEVHNAKTKPREEQYNSTYRVVSVLTVLHQDWLNGKEYKCKVSNKALPASIEKTISKAKGQPREPQVYTLPPSREEMTKNQVSLTCLVKGFYPSDIAVEWESNGQPENNYKTTPPVLDSDGSFFLYSKLTVDKSRWQQGNVFSCSVMHEALHNHYTQKSLSLSPGKGGGGSGGGGSGGGGSQAVVTQESALTTSPGETVTLTCRSSTGAVTTSNYANWVQEKPDHLFTGLIGGTNKRAPGVPARFSGSLIGDKAALTITGAQTEDEAIYFCALWYSNLWVFGGGTKLTVLGGGGSGGGGSGGGGSEVKLLESGGGLVQPKGSLKLSCAASGFTFNTYAMNWVRQAPGKGLEWVARIRSKYNNYATYYADSVKDRFTISRDDSQSILYLQMNNLKTEDTAMYYCVRHGNFGNSYVSWFAYWGQGTLVTVSA
B2: BK-D-08 (bispecific antibody, human IgG1, kappa)
heavy: QVQLVQSGAEVKKPGASVKVSCKASGYTFTNYYMKWVKQAPGQRLEWMGDLNPNNGDTFYNQKFKGRVTITVDKSASTAYMELSSLRSEDTAVYYCARTGRYEENAMDYWGQGTLVTVSSASTKGPSVFPLAPSSKSTSGGTAALGCLVKDYFPEPVTVSWNSGALTSGVHTFPAVLQSSGLYSLSSVVTVPSSSLGTQTYICNVNHKPSNTKVDKRVEPKSCDKTHTCPPCPAPEFEGGPSVFLFPPKPKDTLMISRTPEVTCVVVDVSHEDPEVKFNWYVDGVEVHNAKTKPREEQYNSTYRVVSVLTVLHQDWLNGKEYKCKVSNKALPASIEKTISKAKGQPREPQVYTLPPSREEMTKNQVSLTCLVKGFYPSDIAVEWESNGQPENNYKTTPPVLDSDGSFFLYSKLTVDKSRWQQGNVFSCSVMHEALHNHYTQKSLSLSPGKGGGGSGGGGSGGGGSQAVVTQEPSLTVSPGGTVTLTCRSSTGAVTTSNYANWVQQKPGQAPRGLIGGTNKRAPWTPARFSGSLLGGKAALTLSGAQPEDEAEYYCALWYSNLWVFGGGTKLTVLGGGGSGGGGSGGGGSEVQLVESGGGLVQPGGSLRLSCAASGFTFNTYAMNWVRQAPGKGLEWVARIRSKYNNYATYYADSVKDRFTISRDDSKNILYLQMNSLKTEDTAMYYCVRHGNFGNSYVSWFAYWGQGTLVTVSA
light: DIVLTQSPASLAVSPGQRATITCRASESVDSYGKSFMHWYQQKPGQPPKLLIYRASNLESGVPARFSGSGSRTDFTLTINPVEANDTANYYCQQNNEDPWTFGQGTKLEIKRTVAAPSVFIFPPSDEQLKSGTASVVCLLNNFYPREAKVQWKVDNALQSGNSQESVTEQDSKDSTYSLSSTLTLSKADYEKHKVYACEVTHQGLSSPVTKSFNRGEC
B3: BK-D-03 (bispecific antibody, human IgG1, kappa)
heavy: B2 heavy with I669S, M684V
light: B2 light with I2L, L4M, Q42L
B4: BK-D-06 (bispecific antibody, human IgG1, kappa)
heavy: B2 heavy with Q505E, T525V, G536D, P547T, M684V
light: B2 light
B5: BK-D-05 (bispecific antibody, human IgG1, kappa)
heavy: B2 heavy with L542I, S543T, P547T, M684V
light: B2 light
B6: BK-D-12 (bispecific antibody, human IgG1, kappa)
heavy: B2 heavy
light: B2 light with I2L, L4M, Q42L
B7: BK-D-01 (bispecific antibody, human IgG1, kappa)
heavy: B2 heavy with R44S, M48I, R67K, V68A, I70L, S84N, I669S, M684V
light: B2 light
B8: BK-D-10 (bispecific antibody, human IgG1, kappa)
heavy: B2 heavy with R44S, M48I, R67K, V68A, I70L, S84N, I669S, M684V
light: B2 light with I2L, L4M, Q42L
B9: BK-D-07 (bispecific antibody, human IgG1, kappa)
heavy: B2 heavy with R44S, M48I, R67K, V68A, I70L, S84N
light: B2 light
B10: BK-D-11 (bispecific antibody, human IgG1, kappa)
heavy: B2 heavy with I669S, M684V
light: B2 light
B11: BK-D-04 (bispecific antibody, human IgG1, kappa)
heavy: B2 heavy with T525V, G536D, P547T, I669S, M684V
light: B2 light
B12: BK-D-02 (bispecific antibody, human IgG1, kappa)
heavy: B2 heavy with R44S, M48I, R67K, V68A, I70L, S84N
light: B2 light with I2L, L4M, Q42L
B13: BK-A-101 (bispecific antibody, human IgG1, kappa)
heavy: not shown
light: QAVVTQESALTTSPGETVTLTCRSSTGAVTTSNYANWVQEKPDHLFTGLIGGTNKRAPGVPARFSGSLIGDKAALTITGAQTEDEAIYFCALWYSNLWVFGGGTKLTVLRTVAAPSVFIFPPSDEQLKSGTASVVCLLNNFYPREAKVQWKVDNALQSGNSQESVTEQDSKDSTYSLSSTLTLSKADYEKHKVYACEVTHQGLSSPVTKSFNRGEC
notes: also called bispecific antibody; the bispecific antibody

Positions count from the first letter of the chain named.

T1 sequence (P07766 23-207): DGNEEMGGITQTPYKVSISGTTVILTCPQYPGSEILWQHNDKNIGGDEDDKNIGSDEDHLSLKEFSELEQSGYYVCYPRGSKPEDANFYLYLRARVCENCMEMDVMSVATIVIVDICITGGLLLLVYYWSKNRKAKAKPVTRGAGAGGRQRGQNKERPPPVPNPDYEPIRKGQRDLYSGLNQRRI

One assay has as its target TT3 labeling polypeptide on cells. Briefly: flow cytometry (as for Table 1). Background: Flow cytometry measures light scatter and fluorescence of single cells or particles in a stream.
In the case of B1, the binding result was “binds”.

Another assay addresses T1, CD3 on Jurkat cells and on human T cells (human, UniProt P07766 23-207).
T1 construct: whole, on cells; also called CD3 end; CD3 antigen
Briefly: flow cytometry on Jurkat cells.
Method: Jurkat cells were plated, washed with a FACS buffer, and centrifuged at 1200 rpm for 3-5 min. Then diluted antibodies with different concentrations were added at 100 L/well. The cells were incubated at 4° C. for 0.5 h, centrifuged at 1200 rpm for 3-5 min, and washed with a FACS buffer. Then a diluted goat anti-human IgG (FITC, Abcam/ab97224) antibody was added. The cells were incubated at 4° C. for 0.5 h, centrifuged at 1200 rpm for 3-5 min, washed with a FACS buffer, and resuspended in 50 μL of a FACs buffer, and assays were performed using a flow cytometer.
By EC50 is commonly meant the concentration at which the effect is half-maximal. A lower EC50 goes with greater potency. Consider B2, for which the EC50 turned out to be 136 nM.

Turning to B3, a half-maximal effect (EC50) was put at 111 nM.

In turn, B4 yielded an EC50 of 32.6 nM.

In turn, B5 returned an EC50 of 71.4 nM.

With B6, the EC50 came to 80.6 nM.

As to B7, the EC50 is 62.5 nM.

As to B8, the half-maximal effective concentration (EC50) was determined as 143 nM.

B9 showed an EC50 of 49.4 nM.

Consider B10, for which a half-maximal response (EC50) required 169 nM.

With B11, the EC50 amounted to 18.2 nM.

As to B12, the EC50 is 80.3 nM.

Consider B13, for which the EC50 turned out to be 0.8 nM.

For a further assay, the target named is TT3 labeling polypeptide on cells. Briefly: flow cytometry on HCT116-TT3 cells.
Chain of TT3 labeling polypeptide on cells (P01732 other isoform, or with tags, fused parts or gaps limits assumed): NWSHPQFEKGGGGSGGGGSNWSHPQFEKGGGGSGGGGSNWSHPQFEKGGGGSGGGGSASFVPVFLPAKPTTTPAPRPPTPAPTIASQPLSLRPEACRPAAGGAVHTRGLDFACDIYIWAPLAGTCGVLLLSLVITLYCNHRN
In turn, B2 came in with an EC50 of 0.368 nM.

As for B3, the midpoint of the response, the EC50, lay at 0.464 nM.

B4 came in with an EC50 of 0.908 nM.

The molecule B5 yielded an EC50 of 1.04 nM.

B6 gave an EC50 of 0.523 nM.

B7 had an EC50 of 0.07 nM.

In turn, B8 yielded an EC50 of 0.248 nM.

B9 gave an EC50 of 0.127 nM.

With B10, the EC50 stood at 0.336 nM.

B11 displayed a 50% effective concentration (EC50) of 0.47 nM.

In turn, B12 showed an EC50 of 0.099 nM.

B13 yielded an EC50 of 15.8 nM.
